In patent US20150344570A1 (published 2015):

T1: FcγRIIa R (human, UniProt P12318 34-217)
T1 construct: extracellular domain; also called FcgRIIa R type; 2aR
T1 sequence (looked up): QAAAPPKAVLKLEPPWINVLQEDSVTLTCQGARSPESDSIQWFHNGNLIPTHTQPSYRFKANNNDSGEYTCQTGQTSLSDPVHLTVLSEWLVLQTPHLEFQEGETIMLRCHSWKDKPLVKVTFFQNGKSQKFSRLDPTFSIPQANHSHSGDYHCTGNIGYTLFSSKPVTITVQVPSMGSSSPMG

B1: GpH7-B3 variant K334_12R/GpL16-k0 (antibody, human IgG1, kappa)
heavy: not shown
light: DIVMTQSPLSLPVTPGEPASISCQASESLVHSNRNTYLHWYLQKPGQSPQLLIYKVSNRFSGVPDRFSGSGSGTDFTLKISRVEAEDVGVYYCSQNTHVPPTFGQGTKVEIERTVAAPSVFIFPPSDEQLKSGTASVVCLLNNFYPREAKVQWKVDNALQSGNSQESVTEQDSKDSTYSLSSTLTLSKADYEKHKVYACEVTHQGLSSPVTKSFNRGEC
notes: also called Ho Ab K334_12R
B2: GpH7-B3 variant K326_03V/GpL16-k0 (antibody, human IgG1, kappa)
heavy: not shown
light: B1 light
notes: also called Ho Ab K326_03V
B3: GpH7-B3 variant L328_10E/GpL16-k0 (antibody, human IgG1, kappa)
heavy: not shown
light: B1 light
notes: also called Ho Ab L328_10E
B4: GpH7-B3 variant K326_15Y/GpL16-k0 (antibody, human IgG1, kappa)
heavy: not shown
light: B1 light
notes: also called Ho Ab K326_15Y
B5: GpH7-B3 variant G237_19Q/GpL16-k0 (antibody, human IgG1, kappa)
heavy: not shown
light: B1 light
notes: also called Ho Ab G237_19Q
B6: GpH7-B3 variant I336_18N/GpL16-k0 (antibody, human IgG1, kappa)
heavy: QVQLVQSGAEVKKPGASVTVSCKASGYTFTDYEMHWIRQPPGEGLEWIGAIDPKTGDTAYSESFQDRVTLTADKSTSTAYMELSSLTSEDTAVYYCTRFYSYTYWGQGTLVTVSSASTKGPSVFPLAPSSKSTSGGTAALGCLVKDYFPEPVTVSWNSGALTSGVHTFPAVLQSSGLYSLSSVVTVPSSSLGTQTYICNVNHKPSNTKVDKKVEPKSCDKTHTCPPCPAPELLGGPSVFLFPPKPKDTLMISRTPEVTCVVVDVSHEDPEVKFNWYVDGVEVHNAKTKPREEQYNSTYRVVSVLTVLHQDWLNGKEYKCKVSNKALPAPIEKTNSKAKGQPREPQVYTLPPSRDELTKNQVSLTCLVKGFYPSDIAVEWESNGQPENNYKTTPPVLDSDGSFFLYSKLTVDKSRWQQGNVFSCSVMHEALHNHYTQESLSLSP
light: B1 light
notes: also called Ho Ab I336_18N
B7: GpH7-B3 variant G237_18N/GpL16-k0 (antibody, human IgG1, kappa)
heavy: not shown
light: B1 light
notes: also called Ho Ab G237_18N
B8: GpH7-B3 variant I336_06M/GpL16-k0 (antibody, human IgG1, kappa)
heavy: not shown
light: B1 light
notes: also called Ho Ab I336_06M
B9: GpH7-B3 variant H268_12R/GpL16-k0 (antibody, human IgG1, kappa)
heavy: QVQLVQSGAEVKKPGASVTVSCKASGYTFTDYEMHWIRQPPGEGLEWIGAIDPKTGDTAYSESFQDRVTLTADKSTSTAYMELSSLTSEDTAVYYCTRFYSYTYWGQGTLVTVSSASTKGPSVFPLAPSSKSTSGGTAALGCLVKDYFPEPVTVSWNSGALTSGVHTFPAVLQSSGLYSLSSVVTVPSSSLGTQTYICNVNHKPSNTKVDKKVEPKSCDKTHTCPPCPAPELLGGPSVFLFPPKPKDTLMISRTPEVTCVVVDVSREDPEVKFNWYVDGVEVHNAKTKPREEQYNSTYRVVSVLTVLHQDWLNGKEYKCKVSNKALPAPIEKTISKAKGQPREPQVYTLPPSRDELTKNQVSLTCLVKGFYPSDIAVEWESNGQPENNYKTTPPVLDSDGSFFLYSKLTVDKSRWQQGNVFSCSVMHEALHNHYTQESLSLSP
light: B1 light
notes: also called Ho Ab H268_12R
B10: GpH7-B3 variant K334_20W/GpL16-k0 (antibody, human IgG1, kappa)
heavy: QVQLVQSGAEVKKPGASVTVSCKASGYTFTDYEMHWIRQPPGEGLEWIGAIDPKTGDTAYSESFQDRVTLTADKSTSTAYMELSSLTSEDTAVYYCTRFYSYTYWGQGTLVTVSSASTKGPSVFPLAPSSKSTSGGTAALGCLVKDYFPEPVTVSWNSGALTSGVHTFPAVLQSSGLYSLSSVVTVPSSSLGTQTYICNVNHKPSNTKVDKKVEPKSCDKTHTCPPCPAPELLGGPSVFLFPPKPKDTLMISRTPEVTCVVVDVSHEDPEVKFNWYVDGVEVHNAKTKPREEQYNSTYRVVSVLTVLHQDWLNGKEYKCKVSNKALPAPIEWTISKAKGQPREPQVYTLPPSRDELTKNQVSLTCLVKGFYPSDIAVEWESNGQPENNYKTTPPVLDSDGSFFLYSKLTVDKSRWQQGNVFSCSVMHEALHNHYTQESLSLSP
light: B1 light
notes: also called Ho Ab K334_20W
B11: GpH7-B3 variant L235_04F/GpL16-k0 (antibody, human IgG1, kappa)
heavy: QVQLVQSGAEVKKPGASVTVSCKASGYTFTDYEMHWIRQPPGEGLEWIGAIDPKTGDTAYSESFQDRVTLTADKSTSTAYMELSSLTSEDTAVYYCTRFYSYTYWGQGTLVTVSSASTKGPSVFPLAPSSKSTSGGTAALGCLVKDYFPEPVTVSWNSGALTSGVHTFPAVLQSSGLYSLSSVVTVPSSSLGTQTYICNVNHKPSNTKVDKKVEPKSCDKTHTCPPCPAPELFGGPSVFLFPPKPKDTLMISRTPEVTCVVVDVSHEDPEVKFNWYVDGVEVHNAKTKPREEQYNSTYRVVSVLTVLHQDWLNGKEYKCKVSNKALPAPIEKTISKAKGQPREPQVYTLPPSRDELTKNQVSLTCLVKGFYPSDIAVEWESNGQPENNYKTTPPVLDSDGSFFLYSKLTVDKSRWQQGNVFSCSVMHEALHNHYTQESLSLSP
light: B1 light
notes: also called Ho Ab L235_04F
B12: GpH7-B3 variant K326_20W/GpL16-k0 (antibody, human IgG1, kappa)
heavy: not shown
light: B1 light
notes: also called Ho Ab K326_20W
B13: GpH7-B3 variant N325_10E/GpL16-k0 (antibody, human IgG1, kappa)
heavy: not shown
light: B1 light
notes: also called Ho Ab N325_10E
B14: GpH7-B3 variant I332_06M/GpL16-k0 (antibody, human IgG1, kappa)
heavy: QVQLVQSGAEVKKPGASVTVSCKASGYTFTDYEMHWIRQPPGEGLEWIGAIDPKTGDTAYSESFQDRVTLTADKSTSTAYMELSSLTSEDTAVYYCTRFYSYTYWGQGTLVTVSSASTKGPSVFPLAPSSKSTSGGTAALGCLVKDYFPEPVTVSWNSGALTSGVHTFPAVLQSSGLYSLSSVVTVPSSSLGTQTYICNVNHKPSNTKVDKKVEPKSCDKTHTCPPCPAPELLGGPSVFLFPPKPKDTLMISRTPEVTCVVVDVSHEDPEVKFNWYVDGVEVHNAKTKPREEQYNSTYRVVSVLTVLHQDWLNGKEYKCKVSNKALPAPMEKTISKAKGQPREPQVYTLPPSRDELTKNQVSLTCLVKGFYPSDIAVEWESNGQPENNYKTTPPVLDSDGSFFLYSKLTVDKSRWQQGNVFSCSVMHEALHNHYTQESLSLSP
light: B1 light
notes: also called Ho Ab I332_06M
B15: GpH7-B3 variant L234_09D/GpL16-k0 (antibody, human IgG1, kappa)
heavy: not shown
light: B1 light
notes: also called Ho Ab L234_09D
B16: GpH7-B3 variant N325_06M/GpL16-k0 (antibody, human IgG1, kappa)
heavy: not shown
light: B1 light
notes: also called Ho Ab N325_06M
B17: GpH7-B3 variant N325_03V/GpL16-k0 (antibody, human IgG1, kappa)
heavy: not shown
light: B1 light
notes: also called Ho Ab N325_03V
B18: GpH7-B3 variant L234_04F/GpL16-k0 (antibody, human IgG1, kappa)
heavy: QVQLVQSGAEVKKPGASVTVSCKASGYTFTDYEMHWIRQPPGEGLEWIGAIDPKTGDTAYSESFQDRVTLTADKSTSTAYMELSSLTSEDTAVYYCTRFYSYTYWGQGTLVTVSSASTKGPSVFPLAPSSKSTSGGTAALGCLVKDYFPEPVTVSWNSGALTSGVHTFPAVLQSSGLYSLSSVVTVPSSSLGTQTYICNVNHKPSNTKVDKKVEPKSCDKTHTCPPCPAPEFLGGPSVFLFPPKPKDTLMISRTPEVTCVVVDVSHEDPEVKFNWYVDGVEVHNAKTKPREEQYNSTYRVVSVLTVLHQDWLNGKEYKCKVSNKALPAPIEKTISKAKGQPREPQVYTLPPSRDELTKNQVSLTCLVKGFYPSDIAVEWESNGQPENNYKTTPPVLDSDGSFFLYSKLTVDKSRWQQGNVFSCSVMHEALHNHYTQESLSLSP
light: B1 light
notes: also called Ho Ab L234_04F
B19: GpH7-B3 variant K334_02A/GpL16-k0 (antibody, human IgG1, kappa)
heavy: not shown
light: B1 light
notes: also called Ho Ab K334_02A
B20: GpH7-B3 variant L234_10E/GpL16-k0 (antibody, human IgG1, kappa)
heavy: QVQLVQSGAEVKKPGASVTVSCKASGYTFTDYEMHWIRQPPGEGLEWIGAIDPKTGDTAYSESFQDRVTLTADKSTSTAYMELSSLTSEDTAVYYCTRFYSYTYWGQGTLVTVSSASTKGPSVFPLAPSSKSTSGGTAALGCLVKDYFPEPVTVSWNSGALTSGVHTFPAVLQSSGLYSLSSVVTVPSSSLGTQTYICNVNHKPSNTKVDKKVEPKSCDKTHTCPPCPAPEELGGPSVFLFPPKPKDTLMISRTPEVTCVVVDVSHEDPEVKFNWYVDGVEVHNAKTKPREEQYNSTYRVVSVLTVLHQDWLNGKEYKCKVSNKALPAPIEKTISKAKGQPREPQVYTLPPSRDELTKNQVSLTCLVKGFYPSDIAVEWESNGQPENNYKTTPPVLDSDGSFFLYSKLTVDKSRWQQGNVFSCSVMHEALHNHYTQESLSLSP
light: B1 light
notes: also called Ho Ab L234_10E
B21: GpH7-B3 variant G237_20W/GpL16-k0 (antibody, human IgG1, kappa)
heavy: not shown
light: B1 light
notes: also called Ho Ab G237_20W
B22: GpH7-B3 variant G237_10E/GpL16-k0 (antibody, human IgG1, kappa)
heavy: not shown
light: B1 light
notes: also called Ho Ab G237_10E
B23: GpH7-B3 variant N325_14T/GpL16-k0 (antibody, human IgG1, kappa)
heavy: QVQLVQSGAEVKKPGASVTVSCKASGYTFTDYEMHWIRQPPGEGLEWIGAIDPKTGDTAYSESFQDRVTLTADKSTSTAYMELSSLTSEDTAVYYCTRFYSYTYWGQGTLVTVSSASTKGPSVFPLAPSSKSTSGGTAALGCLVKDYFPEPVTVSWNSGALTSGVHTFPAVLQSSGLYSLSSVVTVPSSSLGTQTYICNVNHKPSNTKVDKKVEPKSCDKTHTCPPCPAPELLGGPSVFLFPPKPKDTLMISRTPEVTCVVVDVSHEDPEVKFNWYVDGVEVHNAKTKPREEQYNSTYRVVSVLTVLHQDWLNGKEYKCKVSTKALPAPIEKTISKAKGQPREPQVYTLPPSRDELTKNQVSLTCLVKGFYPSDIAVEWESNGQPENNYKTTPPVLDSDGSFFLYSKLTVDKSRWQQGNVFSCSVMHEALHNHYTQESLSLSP
light: B1 light
notes: also called Ho Ab N325_14T
B24: GpH7-B3 variant L234_20W/GpL16-k0 (antibody, human IgG1, kappa)
heavy: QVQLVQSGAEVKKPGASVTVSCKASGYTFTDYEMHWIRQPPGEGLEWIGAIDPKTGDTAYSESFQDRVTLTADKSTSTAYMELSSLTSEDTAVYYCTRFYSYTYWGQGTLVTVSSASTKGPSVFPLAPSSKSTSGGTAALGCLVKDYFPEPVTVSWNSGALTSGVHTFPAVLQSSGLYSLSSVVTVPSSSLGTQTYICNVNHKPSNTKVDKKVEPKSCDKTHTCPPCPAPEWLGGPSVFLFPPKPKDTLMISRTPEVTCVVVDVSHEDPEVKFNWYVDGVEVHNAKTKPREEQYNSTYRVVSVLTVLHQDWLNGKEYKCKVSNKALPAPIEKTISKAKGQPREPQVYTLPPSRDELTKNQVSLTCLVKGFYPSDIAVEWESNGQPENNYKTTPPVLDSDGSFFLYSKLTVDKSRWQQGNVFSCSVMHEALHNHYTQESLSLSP
light: B1 light
notes: also called Ho Ab L234_20W
B25: GpH7-B3 variant L328_09D/GpL16-k0 (antibody, human IgG1, kappa)
heavy: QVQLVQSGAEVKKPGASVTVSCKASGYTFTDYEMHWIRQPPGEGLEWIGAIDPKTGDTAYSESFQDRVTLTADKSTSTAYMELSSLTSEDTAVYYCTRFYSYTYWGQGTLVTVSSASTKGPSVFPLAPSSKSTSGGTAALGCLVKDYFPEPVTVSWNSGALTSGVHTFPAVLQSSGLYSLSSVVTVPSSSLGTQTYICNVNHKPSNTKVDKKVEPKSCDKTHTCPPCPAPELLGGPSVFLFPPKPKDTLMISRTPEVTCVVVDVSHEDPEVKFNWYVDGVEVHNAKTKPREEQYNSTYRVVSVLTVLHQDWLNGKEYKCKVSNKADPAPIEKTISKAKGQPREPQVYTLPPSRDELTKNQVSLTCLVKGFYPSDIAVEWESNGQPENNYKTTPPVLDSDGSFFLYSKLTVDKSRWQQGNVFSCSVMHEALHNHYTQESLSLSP
light: B1 light
notes: also called Ho Ab L328_09D
B26: GpH7-B3 variant K334_04F/GpL16-k0 (antibody, human IgG1, kappa)
heavy: not shown
light: B1 light
notes: also called Ho Ab K334_04F
B27: GpH7-B3 variant K334_13S/GpL16-k0 (antibody, human IgG1, kappa)
heavy: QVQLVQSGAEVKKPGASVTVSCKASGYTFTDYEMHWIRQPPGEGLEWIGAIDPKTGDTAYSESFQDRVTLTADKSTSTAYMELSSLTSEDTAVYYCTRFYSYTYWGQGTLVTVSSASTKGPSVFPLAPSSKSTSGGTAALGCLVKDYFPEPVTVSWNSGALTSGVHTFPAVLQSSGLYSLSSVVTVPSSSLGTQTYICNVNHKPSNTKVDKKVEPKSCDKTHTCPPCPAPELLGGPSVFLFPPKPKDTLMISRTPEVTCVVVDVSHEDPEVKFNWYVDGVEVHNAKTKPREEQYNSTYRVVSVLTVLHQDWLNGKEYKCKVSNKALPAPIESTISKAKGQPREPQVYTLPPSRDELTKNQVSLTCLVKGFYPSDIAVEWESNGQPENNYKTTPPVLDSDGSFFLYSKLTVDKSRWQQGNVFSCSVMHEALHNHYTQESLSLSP
light: B1 light
notes: also called Ho Ab K334_13S
B28: GpH7-B3 variant I336_08L/GpL16-k0 (antibody, human IgG1, kappa)
heavy: not shown
light: B1 light
notes: also called Ho Ab I336_08L

Target: T1, FcγRIIa R
Experiment: SPR (Biacore), captured antibody, FcγR as analyte; relative binding activity
Protocol: Analysis of interaction between objective antibody and the FcγR was carried out using Biacore T100 (GE Healthcare). HBS-EP+ (GE Healthcare) was used as the running buffer, and the measurement temperature was set to 25° C. Chips produced by immobilizing the antigen peptide by the amine coupling method to a Series S Sencor Chip CM5 (GE Healthcare), or alternatively, chips produced by allowing preliminarily biotinylated antigen peptides to interact with and immobilize onto a Series S Sensor Chip SA (certified) (GE Healthcare) were used. Antibodies of interest were captured onto an antigen peptide-immobilized chip, and allowed to interact to each FcγR diluted with running buffer. To regenerate and repeatedly use the chip, the antibodies captured on the chip were washed off by reacting 10 mM glycine-HCl, pH 1.5.

Binder	Ho/Con_2aR
B1	110 % (GpH7-B3/GpL16-k0 = 100)
B2	139 % (GpH7-B3/GpL16-k0 = 100)
B3	48.1 % (GpH7-B3/GpL16-k0 = 100)
B4	134 % (GpH7-B3/GpL16-k0 = 100)
B5	14.3 % (GpH7-B3/GpL16-k0 = 100)
B6	94.5 % (GpH7-B3/GpL16-k0 = 100)
B7	73.6 % (GpH7-B3/GpL16-k0 = 100)
B8	96.4 % (GpH7-B3/GpL16-k0 = 100)
B9	98.5 % (GpH7-B3/GpL16-k0 = 100)
B10	96.4 % (GpH7-B3/GpL16-k0 = 100)
B11	98.9 % (GpH7-B3/GpL16-k0 = 100)
B12	120 % (GpH7-B3/GpL16-k0 = 100)
B13	49.9 % (GpH7-B3/GpL16-k0 = 100)
B14	105 % (GpH7-B3/GpL16-k0 = 100)
B15	42.8 % (GpH7-B3/GpL16-k0 = 100)
B16	124 % (GpH7-B3/GpL16-k0 = 100)
B17	37.8 % (GpH7-B3/GpL16-k0 = 100)
B18	43.3 % (GpH7-B3/GpL16-k0 = 100)
B19	100 % (GpH7-B3/GpL16-k0 = 100)
B20	39.9 % (GpH7-B3/GpL16-k0 = 100)
B21	107 % (GpH7-B3/GpL16-k0 = 100)
B22	22.5 % (GpH7-B3/GpL16-k0 = 100)
B23	60.2 % (GpH7-B3/GpL16-k0 = 100)
B24	53.8 % (GpH7-B3/GpL16-k0 = 100)
B25	68.8 % (GpH7-B3/GpL16-k0 = 100)
B26	110 % (GpH7-B3/GpL16-k0 = 100)
B27	106 % (GpH7-B3/GpL16-k0 = 100)
B28	105 % (GpH7-B3/GpL16-k0 = 100)
